In general, Kd refers to the constant that tells how readily two partners part at equilibrium. A low value points to tighter binding. As a reminder, the koff is the rate constant with which the complex falls apart. By kon is commonly meant the second-order rate constant of association. Lower therefore signals slow association.

The results in this text go back to patent publication US20240239881A1 (Innovent, published 2024).

For experiment [1], the target named is T1, human Ang2 (human, UniProt O15123 19-496, limits assumed).
T1 construct: also called hAng2; h Ang2
T1 sequence: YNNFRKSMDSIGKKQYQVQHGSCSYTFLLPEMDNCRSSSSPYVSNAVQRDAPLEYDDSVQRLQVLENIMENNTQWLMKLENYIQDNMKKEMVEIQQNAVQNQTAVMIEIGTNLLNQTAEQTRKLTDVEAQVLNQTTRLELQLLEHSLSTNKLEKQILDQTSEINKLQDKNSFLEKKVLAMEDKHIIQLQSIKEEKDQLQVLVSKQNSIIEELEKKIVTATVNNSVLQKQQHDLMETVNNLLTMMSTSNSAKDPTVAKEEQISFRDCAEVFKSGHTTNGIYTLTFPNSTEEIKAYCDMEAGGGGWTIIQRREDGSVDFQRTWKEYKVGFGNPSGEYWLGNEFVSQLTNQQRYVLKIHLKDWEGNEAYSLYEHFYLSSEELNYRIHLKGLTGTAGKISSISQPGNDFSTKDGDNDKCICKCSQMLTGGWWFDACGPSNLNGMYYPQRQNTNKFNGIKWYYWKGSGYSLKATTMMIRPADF
The experiment is described as follows: SPR, Biacore T200, mean of three experiments. On the procedure:
(§1) The antibody was diluted to 1 μg/mL and was captured onto channel 2 for 30 s, and channel 1 was the blank control channel. The gradient-diluted Human ANG2, Rhesus ANG2, Rabbit ANG2, Rat ANG2 and Mouse ANG2 were sequentially injected into channels 1 and 2 of the chip, from low to high concentrations (0-32 nM), at a flow rate of 30 μL/min, with one concentration per cycle, and with 180 s association time and 1200 s dissociation time at 25° C. Finally, the chip was regenerated using Glycine pH 1.5 at 30 μL/min for 30 s. The affinity assay was repeated three times.
In general terms: SPR reads the build-up and loss of mass on a sensor chip optically.

Experiment [2] has as its target T2, Rhesus ANG2 (rhesus, UniProt F6QXG0 19-496).
T2 sequence: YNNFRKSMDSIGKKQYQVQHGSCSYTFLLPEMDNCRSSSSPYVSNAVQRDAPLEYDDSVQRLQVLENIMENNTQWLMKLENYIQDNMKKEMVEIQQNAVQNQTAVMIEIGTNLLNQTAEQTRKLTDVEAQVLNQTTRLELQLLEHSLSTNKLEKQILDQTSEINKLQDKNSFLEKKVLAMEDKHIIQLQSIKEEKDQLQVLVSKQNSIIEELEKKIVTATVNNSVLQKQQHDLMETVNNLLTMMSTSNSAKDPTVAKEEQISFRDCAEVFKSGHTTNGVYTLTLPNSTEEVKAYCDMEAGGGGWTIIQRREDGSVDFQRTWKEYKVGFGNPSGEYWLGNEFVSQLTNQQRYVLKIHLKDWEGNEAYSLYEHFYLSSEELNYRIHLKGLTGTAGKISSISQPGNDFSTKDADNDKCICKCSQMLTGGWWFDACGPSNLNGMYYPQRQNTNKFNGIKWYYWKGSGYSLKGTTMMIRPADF
The experiment is described as follows: SPR, Biacore T200, mean of three experiments. How it is done:
as §1

Experiment [3] concerns the target T3, Rabbit ANG2 (rabbit, UniProt G1T9B3 19-496).
T3 sequence: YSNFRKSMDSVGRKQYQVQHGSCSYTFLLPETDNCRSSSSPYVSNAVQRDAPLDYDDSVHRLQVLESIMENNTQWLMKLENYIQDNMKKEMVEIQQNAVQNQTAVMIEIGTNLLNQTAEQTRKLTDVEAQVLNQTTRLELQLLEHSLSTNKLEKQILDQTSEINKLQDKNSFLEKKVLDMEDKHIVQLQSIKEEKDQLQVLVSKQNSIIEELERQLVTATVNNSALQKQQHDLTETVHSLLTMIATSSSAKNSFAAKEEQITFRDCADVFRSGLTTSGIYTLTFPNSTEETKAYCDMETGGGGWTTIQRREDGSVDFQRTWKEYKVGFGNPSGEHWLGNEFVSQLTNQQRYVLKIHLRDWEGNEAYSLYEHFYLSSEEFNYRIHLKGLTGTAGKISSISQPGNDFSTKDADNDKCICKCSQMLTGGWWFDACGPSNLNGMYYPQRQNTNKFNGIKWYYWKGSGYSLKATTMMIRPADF
The experiment is described as follows: SPR, Biacore T200, mean of three experiments. How it is done: as §1

The target of a further experiment is T4, Mouse ANG2 (mouse, UniProt O35608 19-496, limits assumed).
T4 sequence (looked up): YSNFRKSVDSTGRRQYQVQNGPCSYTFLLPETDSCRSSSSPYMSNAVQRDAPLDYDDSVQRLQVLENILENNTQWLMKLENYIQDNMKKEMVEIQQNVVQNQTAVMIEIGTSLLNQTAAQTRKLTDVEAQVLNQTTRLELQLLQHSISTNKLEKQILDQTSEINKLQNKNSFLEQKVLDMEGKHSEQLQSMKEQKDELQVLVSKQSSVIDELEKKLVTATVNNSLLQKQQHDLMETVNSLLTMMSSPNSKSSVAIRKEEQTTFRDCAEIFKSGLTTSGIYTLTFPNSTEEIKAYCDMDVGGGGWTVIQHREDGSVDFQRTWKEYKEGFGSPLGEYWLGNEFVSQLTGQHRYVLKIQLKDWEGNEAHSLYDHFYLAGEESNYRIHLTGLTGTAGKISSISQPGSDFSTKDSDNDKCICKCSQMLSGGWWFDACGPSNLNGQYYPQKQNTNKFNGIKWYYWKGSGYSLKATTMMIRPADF
Description: SPR, Biacore T200, antibody captured on Protein G chip. How it is done:
as §1

In experiment [4] the target is T5, hAng2-Fc protein (Sino Biological, Cat No.: 10691-H02H) (human, UniProt O15123 19-496).
T5 sequence: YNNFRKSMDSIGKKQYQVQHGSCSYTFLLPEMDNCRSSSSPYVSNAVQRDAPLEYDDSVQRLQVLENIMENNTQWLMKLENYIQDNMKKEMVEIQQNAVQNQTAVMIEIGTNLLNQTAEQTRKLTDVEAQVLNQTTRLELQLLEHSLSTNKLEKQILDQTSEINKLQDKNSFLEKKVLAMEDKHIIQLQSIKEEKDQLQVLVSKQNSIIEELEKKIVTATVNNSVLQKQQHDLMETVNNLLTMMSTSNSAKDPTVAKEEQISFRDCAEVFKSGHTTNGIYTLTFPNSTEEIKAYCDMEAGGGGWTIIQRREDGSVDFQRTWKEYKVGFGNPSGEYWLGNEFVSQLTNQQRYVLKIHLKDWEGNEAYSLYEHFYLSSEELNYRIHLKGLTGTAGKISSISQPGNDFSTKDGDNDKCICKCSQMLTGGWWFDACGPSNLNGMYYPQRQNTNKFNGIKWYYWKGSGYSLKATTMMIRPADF
Description: cell-based or functional assay.

Experiment [5] deals with T1, human Ang2. The experiment is described as follows: SPR, Biacore T200, antibody captured on Protein G chip, experiment 3. On the procedure: as §1
Experiment [6] concerns the target T3, Rabbit ANG2. Described as above. On the procedure: as §1
The target in experiment [7] is T1, human Ang2. The experiment is described as follows: SPR, Biacore T200, antibody captured on Protein G chip, experiment 2. On the procedure:
as §1

In experiment [8] the target is T2, Rhesus ANG2. The description is as above. How it is done:
as §1

Experiment [9] concerns the target T3, Rabbit ANG2. Described as above. On the procedure:
as §1

B1: humanized antibody hz81H10.4 (antibody, human IgG1, kappa, V domains shown)
VH: EVQLVESGGGLVKPGGSLRLSCAASGFTFSNYWMNWVRQAPGKGLEWVAEIRLKSNNYATHYAESVKGRFTISRDVSKNTVYLQMNSLKTEDTAVYYCTDTAPFAYWGQGTLVTVSS
VL: DIQMTQSPSSLSASVGDRVTITCKASQDVGTDVAWYQQKPGKAPKLLIYWASTRHTGVPSRFSGSGSGTDFTLTISSLQPEDFATYYCQQYSSYPLTFGGGTKVEIKR
notes: also called IBI335
For B1, the Kd turned out to be 0.0457 nM with human Ang2 [1]; 0.146 nM with Rhesus ANG2 [2]; 0.48 nM with Rabbit ANG2 [3]; 0.0357 nM with human Ang2 [5]; 0.446 nM in the experiment with Rabbit ANG2 [6]; 0.0319 nM with human Ang2 [7]. Also, the Kd with Rhesus ANG2 [8] was determined as 0.126 nM; with Rabbit ANG2 [9], 0.477 nM. Moreover, the binding result with Mouse ANG2 is given as “no binding (tested: 0-32 nM)”. Also, in experiment [4], the “IC50 (read off the curve)” value was approximately 5 nM. For the same molecule, the dissociation rate constant (koff) with human Ang2 [5] came to 1.05e-05 s⁻¹; with Rabbit ANG2 [6], 0.000144 s⁻¹; in the experiment with human Ang2 [7] it was 8.25e-06 s⁻¹; with Rhesus ANG2 [8], 3.67e-05 s⁻¹; with Rabbit ANG2 [9], 0.000152 s⁻¹. Moreover, the kon with human Ang2 [5] stood at 293000 M⁻¹ s⁻¹; in the experiment with Rabbit ANG2 [6] it was 322000 M⁻¹ s⁻¹; with human Ang2 [7], 259000 M⁻¹ s⁻¹; in the experiment with Rhesus ANG2 [8] it was 291000 M⁻¹ s⁻¹; with Rabbit ANG2 [9] it was 318000 M⁻¹ s⁻¹.
